Key:
[1] = target: CD19 CAR chain of CD19 CAR-mIL7 (CAR-1-CD19/CAR-2-IL-7, plasmid PC035), on transduced T cells; assay: flow cytometry, CD19 CAR-mIL7 T cells stained with Protein L
[2] = target: T1, CD19 on CD19 positive cells (Raji, Nalm-6) (human, UniProt P15391 20-556); assay: cell-based or functional assay
T1 sequence (looked up): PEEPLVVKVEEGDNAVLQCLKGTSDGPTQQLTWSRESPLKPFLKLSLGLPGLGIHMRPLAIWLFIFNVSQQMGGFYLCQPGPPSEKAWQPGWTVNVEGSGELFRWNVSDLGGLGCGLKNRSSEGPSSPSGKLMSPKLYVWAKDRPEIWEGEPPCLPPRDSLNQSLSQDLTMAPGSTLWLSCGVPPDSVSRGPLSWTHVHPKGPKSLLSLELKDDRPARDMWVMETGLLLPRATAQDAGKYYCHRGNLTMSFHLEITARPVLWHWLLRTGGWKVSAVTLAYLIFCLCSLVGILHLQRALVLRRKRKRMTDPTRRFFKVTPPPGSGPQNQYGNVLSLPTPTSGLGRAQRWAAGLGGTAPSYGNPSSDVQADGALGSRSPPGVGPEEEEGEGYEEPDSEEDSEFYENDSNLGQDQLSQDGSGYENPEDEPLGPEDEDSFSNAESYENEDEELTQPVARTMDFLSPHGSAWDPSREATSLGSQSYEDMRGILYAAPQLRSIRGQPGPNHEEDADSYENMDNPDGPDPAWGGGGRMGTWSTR

[3] = target: T2, CD20 on CD20 positive cells (Raji, Nalm-6) (UniProt P11836 1-297, limits assumed); assay: cell-based or functional assay
T2 sequence (looked up): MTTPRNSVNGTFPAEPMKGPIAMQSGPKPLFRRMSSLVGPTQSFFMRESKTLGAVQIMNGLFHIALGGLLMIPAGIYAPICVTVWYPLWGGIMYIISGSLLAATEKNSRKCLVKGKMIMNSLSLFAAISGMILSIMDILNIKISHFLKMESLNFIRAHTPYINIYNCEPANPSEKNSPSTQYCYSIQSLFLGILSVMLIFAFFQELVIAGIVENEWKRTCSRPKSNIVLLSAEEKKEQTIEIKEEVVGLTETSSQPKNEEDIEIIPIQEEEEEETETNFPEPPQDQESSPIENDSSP

Protein L
percent positive cells [1]: 49%

B1: CAR-1-CD19 (full humanized anti-CD19 single CAR), on transduced T cells (other)
chain: DIQMTQSPSSLSASVGDRVTITCRASQDISKYLNWYQQKPGKAPKLLIYHTSRLHSGVPSRFSGSGSGTDYTLTISSLQPEDFATYYCQQGNTLPYTFGGGTKVEIKGSTSGGGSGGGSGGGGSSQVQLQESGPGLVKPSQTLSLTCTVSGVSLPDYGVSWIRQPPGKGLEWLGVIWGSETTYYNSALKSRLTISRDNSKNTLYLQMNSLRAEDTAVYYCAKHYYYGGSYAMDYWGQGTTVTVSSTTTPAPRPPTPAPTIASQPLSLRPEACRPAAGGAVHTRGLDFACDFWLPIGCAAFVVVCILGCILICWLTKKKYSSSVHDPNGEYMFMRAVNTAKKSRLTDVTLRVKFSRSADAPAYKQGQNQLYNELNLGRREEYDVLDKRRGRDPEMGGKPRRKNPQEGLYNELQKDKMAEAYSEIGMKGERRRGKGHDGLYQGLSTATKDTYDALHMQALPPR
target cell killing at E/T ratio at 10:1, 4 h, Raji and Nalm-6 co-culture (flow cytometry, CFSE/Annexin/PI) [2]: > 90%

B2: CAR-1-CD20 (full humanized anti-CD20 single CAR), on transduced T cells (other)
chain: EIVLTQSPATLSLSPGERATMTCRASSSVNYMDWYQQKPGQAPRPWIYATSNLASGVPARFSGSGSGTDFTLTISSLEPEDFAVYYCQQWSFNPPTFGGGTKVEIKGSTSGGGSGGGSGGGGSSQVQLVQSGAEVKKPGASVKVSCKASGYTFTSYNMHWVRQAPGQGLEWIGAIYPGNGDTSYNQKFKGKATLTRDTSTSTVYMELSSLRSEDTAVYYCARSNYYGSSYWFFDVWGQGTTVTVSSTTTPAPRPPTPAPTIASQPLSLRPEACRPAAGGAVHTRGLDFACDFWLPIGCAAFVVVCILGCILICWLTKKKYSSSVHDPNGEYMFMRAVNTAKKSRLTDVTLRVKFSRSADAPAYKQGQNQLYNELNLGRREEYDVLDKRRGRDPEMGGKPRRKNPQEGLYNELQKDKMAEAYSEIGMKGERRRGKGHDGLYQGLSTATKDTYDALHMQALPPR
target cell killing at E/T ratio at 10:1, 4 h, Raji and Nalm-6 co-culture (flow cytometry, CFSE/Annexin/PI) [3]: > 80%

Source: patent US20210079111A1 (ABCYTE THERAPEUTICS, published 2021)
